Measured values taken from patent US10087225B2, “Formulation of MK2 inhibitor peptides” (MOERAE MATRIX, INC., priority 2015, dated 2018).

What was measured:
Assay in all cases: Kinase Profiling Assay
Type in all cases: biochemical
Conditions in all cases: 100 μM
[1] = target: IGF-1R(h) (Homo sapiens, UniProt P08069)
[2] = target: GRK5(h) (Homo sapiens, UniProt P34947)
[3] = target: PKBγ(h) (Homo sapiens, UniProt Q9Y243)
[4] = target: eEF-2K(h) (Homo sapiens, UniProt O00418)
[5] = target: LIMK1(h) (Homo sapiens, UniProt P53667)
[6] = target: Rsk3(h) (Homo sapiens, UniProt Q15349)
[7] = target: JNK2α2(h) (Homo sapiens, UniProt P45984)
[8] = target: Ab1(M351T)(h) (Homo sapiens, UniProt P00519, M351T)
[9] = target: Ab1(H396P)(h) (Homo sapiens, UniProt P00519, H396P)
[10] = target: EGFR(T790M)(h) (Homo sapiens, UniProt P00533, T790M)
[11] = target: T1, SGK2(h) (Homo sapiens, UniProt Q9HBY8)
T1 sequence (Q9HBY8 1-367): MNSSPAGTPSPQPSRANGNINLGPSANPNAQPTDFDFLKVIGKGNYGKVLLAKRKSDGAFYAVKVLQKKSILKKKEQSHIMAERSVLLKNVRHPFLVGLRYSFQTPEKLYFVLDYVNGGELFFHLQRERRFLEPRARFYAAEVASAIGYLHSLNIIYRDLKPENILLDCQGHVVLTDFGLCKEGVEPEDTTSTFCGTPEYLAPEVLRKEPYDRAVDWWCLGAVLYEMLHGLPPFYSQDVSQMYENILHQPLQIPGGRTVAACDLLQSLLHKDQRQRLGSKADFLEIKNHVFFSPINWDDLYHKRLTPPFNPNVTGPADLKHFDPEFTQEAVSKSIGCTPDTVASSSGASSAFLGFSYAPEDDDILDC

[12] = target: T2, SAPK4(h) (Homo sapiens, UniProt O15264)
T2 sequence (O15264 1-365): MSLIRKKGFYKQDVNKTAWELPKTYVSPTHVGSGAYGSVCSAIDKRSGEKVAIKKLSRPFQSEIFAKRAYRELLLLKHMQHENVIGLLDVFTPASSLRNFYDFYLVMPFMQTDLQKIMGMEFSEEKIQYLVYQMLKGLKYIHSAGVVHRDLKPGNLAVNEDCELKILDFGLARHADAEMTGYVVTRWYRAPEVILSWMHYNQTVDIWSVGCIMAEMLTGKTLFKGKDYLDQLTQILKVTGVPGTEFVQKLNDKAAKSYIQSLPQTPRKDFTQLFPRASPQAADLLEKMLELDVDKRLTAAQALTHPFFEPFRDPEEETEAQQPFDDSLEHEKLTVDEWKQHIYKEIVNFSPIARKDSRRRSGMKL

[13] = target: T3, CHK1(h) (Homo sapiens, UniProt O14757)
T3 sequence (O14757 1-476): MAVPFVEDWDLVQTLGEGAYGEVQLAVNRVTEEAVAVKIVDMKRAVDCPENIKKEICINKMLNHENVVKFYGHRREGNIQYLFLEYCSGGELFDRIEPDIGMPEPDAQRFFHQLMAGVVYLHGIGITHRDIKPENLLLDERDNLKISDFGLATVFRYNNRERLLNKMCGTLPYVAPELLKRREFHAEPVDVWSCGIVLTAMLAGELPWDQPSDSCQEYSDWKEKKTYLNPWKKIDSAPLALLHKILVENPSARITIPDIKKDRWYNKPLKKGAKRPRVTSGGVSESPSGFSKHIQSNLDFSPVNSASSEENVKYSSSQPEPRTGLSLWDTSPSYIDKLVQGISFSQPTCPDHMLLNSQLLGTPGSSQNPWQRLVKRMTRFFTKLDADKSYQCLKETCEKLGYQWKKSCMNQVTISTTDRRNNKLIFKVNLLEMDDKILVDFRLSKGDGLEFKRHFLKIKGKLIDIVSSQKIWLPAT

[14] = target: T4, EphA3(h) (Homo sapiens, UniProt P29320)
T4 sequence (P29320 21-983): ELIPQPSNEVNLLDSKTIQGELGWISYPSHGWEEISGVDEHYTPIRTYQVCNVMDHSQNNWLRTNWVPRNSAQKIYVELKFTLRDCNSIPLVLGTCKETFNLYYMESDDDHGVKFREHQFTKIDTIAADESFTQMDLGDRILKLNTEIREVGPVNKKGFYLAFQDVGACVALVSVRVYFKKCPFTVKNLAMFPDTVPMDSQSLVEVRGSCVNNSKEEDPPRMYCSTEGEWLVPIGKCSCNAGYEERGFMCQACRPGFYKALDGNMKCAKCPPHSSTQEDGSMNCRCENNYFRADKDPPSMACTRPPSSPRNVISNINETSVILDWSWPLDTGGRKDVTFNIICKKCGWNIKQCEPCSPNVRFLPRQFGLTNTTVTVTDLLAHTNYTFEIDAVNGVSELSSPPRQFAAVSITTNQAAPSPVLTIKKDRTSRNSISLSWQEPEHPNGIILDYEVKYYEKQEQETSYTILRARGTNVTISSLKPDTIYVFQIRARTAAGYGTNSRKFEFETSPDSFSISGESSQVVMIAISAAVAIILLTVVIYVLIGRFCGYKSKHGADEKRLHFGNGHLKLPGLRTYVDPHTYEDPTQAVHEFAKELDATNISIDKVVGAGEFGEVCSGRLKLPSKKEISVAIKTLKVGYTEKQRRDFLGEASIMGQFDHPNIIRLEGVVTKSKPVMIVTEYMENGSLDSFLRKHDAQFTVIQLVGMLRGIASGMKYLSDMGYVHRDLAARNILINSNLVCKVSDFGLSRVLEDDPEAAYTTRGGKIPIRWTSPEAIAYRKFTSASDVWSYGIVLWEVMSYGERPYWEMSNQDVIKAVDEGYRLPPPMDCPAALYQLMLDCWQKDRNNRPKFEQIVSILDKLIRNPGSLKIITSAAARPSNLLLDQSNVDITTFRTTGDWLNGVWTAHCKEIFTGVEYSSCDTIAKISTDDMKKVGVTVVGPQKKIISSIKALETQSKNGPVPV

Sequence of GRK5(h) (P34947 whole entry): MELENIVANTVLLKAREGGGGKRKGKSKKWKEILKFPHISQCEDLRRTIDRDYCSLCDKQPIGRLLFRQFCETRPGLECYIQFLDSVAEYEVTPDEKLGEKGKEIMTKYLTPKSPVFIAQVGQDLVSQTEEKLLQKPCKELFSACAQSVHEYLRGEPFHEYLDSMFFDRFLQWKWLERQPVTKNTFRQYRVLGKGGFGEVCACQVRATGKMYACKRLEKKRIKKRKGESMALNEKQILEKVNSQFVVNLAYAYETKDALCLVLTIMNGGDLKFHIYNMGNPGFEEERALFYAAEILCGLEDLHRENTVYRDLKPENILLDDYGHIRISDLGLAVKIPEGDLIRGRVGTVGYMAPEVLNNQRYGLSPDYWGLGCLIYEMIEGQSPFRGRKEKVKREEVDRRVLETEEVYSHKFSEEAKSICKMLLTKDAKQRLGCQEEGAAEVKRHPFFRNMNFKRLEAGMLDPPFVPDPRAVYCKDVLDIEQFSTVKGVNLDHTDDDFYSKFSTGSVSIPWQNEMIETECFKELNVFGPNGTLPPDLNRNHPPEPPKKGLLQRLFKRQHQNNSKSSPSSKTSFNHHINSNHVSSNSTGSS
Sequence of PKBγ(h) (Q9Y243 whole entry): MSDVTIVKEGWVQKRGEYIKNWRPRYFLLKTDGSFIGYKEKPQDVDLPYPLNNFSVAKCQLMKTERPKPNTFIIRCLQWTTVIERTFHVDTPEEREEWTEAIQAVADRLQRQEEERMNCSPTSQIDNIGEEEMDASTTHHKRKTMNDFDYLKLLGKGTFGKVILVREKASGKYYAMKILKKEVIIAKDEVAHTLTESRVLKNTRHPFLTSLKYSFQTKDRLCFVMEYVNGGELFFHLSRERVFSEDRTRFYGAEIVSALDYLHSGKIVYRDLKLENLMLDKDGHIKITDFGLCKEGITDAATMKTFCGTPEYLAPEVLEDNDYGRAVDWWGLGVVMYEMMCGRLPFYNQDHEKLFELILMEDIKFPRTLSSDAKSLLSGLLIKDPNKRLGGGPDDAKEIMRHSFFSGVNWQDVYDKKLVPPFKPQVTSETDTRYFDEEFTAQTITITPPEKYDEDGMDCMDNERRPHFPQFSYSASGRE
Sequence of LIMK1(h) (P53667 whole entry): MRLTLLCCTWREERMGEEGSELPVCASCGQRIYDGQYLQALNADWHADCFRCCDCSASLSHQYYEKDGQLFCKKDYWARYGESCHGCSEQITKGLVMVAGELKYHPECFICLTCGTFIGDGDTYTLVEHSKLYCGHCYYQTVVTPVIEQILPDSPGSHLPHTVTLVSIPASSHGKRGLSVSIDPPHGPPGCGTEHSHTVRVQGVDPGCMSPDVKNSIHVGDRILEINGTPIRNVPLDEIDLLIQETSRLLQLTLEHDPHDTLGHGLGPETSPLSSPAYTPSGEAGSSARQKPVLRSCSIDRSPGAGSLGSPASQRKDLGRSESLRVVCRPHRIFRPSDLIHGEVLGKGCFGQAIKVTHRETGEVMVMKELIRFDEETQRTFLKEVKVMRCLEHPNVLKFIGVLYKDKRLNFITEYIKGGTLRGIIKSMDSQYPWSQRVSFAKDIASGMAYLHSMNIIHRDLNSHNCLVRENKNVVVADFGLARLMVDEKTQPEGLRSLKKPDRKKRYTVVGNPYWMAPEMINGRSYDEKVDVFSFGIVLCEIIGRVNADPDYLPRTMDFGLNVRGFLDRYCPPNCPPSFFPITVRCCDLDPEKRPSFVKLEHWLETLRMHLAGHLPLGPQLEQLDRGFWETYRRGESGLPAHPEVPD
Sequence of Rsk3(h) (Q15349 whole entry): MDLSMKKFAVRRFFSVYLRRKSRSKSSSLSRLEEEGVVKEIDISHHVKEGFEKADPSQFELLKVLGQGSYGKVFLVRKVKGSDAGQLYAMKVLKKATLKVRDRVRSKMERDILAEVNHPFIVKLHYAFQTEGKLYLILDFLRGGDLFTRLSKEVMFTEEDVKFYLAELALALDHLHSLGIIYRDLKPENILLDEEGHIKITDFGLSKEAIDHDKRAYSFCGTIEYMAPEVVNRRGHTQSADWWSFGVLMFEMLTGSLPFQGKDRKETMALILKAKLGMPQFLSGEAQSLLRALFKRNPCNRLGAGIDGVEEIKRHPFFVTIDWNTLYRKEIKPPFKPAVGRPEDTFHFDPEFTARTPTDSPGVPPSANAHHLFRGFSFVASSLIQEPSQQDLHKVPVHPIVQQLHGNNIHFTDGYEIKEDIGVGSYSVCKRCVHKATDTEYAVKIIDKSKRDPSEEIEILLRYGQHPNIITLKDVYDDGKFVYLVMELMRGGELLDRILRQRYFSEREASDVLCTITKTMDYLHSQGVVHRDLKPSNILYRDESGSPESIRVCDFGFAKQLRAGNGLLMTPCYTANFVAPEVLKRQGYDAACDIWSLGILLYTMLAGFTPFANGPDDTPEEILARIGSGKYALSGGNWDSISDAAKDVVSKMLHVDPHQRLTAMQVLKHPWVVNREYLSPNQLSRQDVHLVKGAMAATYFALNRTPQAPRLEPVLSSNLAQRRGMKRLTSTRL

Sequence: YARAAARQARAKALNRQLGVA (Mammalian) [MMI-0200]
- % activity [1]: 49%
- % activity [2]: 135%

Sequence: HRRIKAWLKKIKALARQLGVAA (Mammalian) [MMI-0500]
- % activity [3]: 20%
- % activity [4]: 43%
- % activity [5]: 87%
- % activity [6]: 23%
- % activity [7]: 81%
- % activity [8]: 61%
- % activity [9]: 51%
- % activity [10]: 70%
- % activity [11]: -1%
- % activity [12]: 48%
- % activity [13]: 65%
- % activity [14]: 33%
